Experimental data taken from IntAct's records for PubMed 35512704.

B1: Mothers against decapentaplegic homolog 4 (Homo sapiens), Q13485 (parent)
chain: MDNMSITNTPTSNDACLSIVHSLMCHRQGGESETFAKRAIESLVKKLKEKKDELDSLITAITTNGAHPSKCVTIQRTLDGRLQVAGRKGFPHVIYARLWRWPDLHKNELKHVKYCQYAFDLKCDSVCVNPYHYERVVSPGIDLSGLTLQSNAPSSMMVKDEYVHDFEGQPSLSTEGHSIQTIQHPPSNRASTETYSTPALLAPSESNATSTANFPNIPVASTSQPASILGGSHSEGLLQIASGPQPGQQQNGFTGQPATYHHNSTTTWTGSRTAPYTPNLPHHQNGHLQHHPPMPPHPGHYWPVHNELAFQPPISNHPAPEYWCSIAYFEMDVQVGETFKVPSSCPIVTVDGYVDPSGGDRFCLGQLSNVHRTEAIERARLHIGKGVQLECKGEGDVWVRCLSDHAVFVQSYYLDREAGRAPGDAVHKIYPSAYIKVFDLRQCHRQMQQQAATAQAAAAAQAAAVAGNIPGPGSVGGIAPAISLSAAAGIGVDDLRRLCILRMSFVKGWGPDYPRQSIKETPCWIEIHLHRALQLLDEVLHTMPIADPQPLD

Variants of: B1
Conditions: with keap1_human KEAP1, Q14145

**Q.** For D351H, which “effect of a mutation on the interaction” value is on record?
**A.** with no effect

Variants of: B1
Conditions: with klf4_human KLF4, O43474

**Q.** For D351H, which “effect of a mutation on the interaction” value is on record?
**A.** with no effect

Variants of: B1
Conditions: with maga6_human MAGEA6, P43360

**Q.** Which “effect of a mutation on the interaction” value does the source give for D351H here?
**A.** with no effect

Variants of: B1
Conditions: with mp2k7_human MAP2K7, O14733

**Q.** How did the “effect of a mutation on the interaction” value turn out when D351H was run?
**A.** with no effect

Variants of: B1
Conditions: with m3k1_human MAP3K1, Q13233

**Q.** For D351H, which “effect of a mutation on the interaction” value is on record?
**A.** with no effect

Variants of: B1
Conditions: with mk10_human MAPK10, P53779

**Q.** D351H was tested. Which “effect of a mutation on the interaction” value did it give?
**A.** with no effect

Variants of: B1
Conditions: with mk14_human MAPK14, Q16539

**Q.** For D351H, which “effect of a mutation on the interaction” value is on record?
**A.** with no effect

Variants of: B1
Conditions: with mk03_human MAPK3, P27361

**Q.** With D351H as the variant, how does the “effect of a mutation on the interaction” value read?
**A.** with no effect

Variants of: B1
Conditions: with mk04_human MAPK4, P31152

**Q.** Which “effect of a mutation on the interaction” value does the source give for D351H here?
**A.** with no effect

Variants of: B1
Conditions: with mk06_human MAPK6, Q16659

**Q.** With D351H as the variant, how does the “effect of a mutation on the interaction” value read?
**A.** with no effect

Variants of: B1
Conditions: with mcl1_human MCL1, Q07820

**Q.** For D351H, which “effect of a mutation on the interaction” value is on record?
**A.** with no effect

Variants of: B1
Conditions: with mitf_human MITF

**Q.** With D351H as the variant, how does the “effect of a mutation on the interaction” value read?
**A.** with no effect

Variants of: B1
Conditions: with myc_human MYC

**Q.** D351H was tested. Which “effect of a mutation on the interaction” value did it give?
**A.** with no effect

Variants of: B1
Conditions: with nck2_human NCK2, O43639

**Q.** Which “effect of a mutation on the interaction” value does the source give for D351H here?
**A.** with no effect

Variants of: B1
Conditions: with nf1_human NF1, P21359

**Q.** For D351H, which “effect of a mutation on the interaction” value is on record?
**A.** with no effect

Variants of: B1
Conditions: with merl_human NF2, P35240

**Q.** For D351H, which “effect of a mutation on the interaction” value is on record?
**A.** with no effect

Variants of: B1
Conditions: with nfic_human NFIC

**Q.** For D351H, which “effect of a mutation on the interaction” value is on record?
**A.** with no effect

Variants of: B1
Conditions: with notc2_human NOTCH2, Q04721

**Q.** Which “effect of a mutation on the interaction” value does the source give for D351H here?
**A.** with no effect

Variants of: B1
Conditions: with ntrk2_human NTRK2, Q16620

**Q.** Which “effect of a mutation on the interaction” value does the source give for D351H here?
**A.** with no effect

Variants of: B1
Conditions: with ntrk3_human NTRK3, Q16288

**Q.** With D351H as the variant, how does the “effect of a mutation on the interaction” value read?
**A.** with no effect

Variants of: B1
Conditions: with pak3_human PAK3, O75914

**Q.** For D351H, which “effect of a mutation on the interaction” value is on record?
**A.** with no effect

Variants of: B1
Conditions: with prkn_human PRKN

**Q.** For D351H, which “effect of a mutation on the interaction” value is on record?
**A.** with no effect

Variants of: B1
Conditions: with pax5_human PAX5, Q02548

**Q.** Which “effect of a mutation on the interaction” value does the source give for D351H here?
**A.** with no effect

Variants of: B1
Conditions: with pax9_human PAX9, P55771

**Q.** How did the “effect of a mutation on the interaction” value turn out when D351H was run?
**A.** with no effect

Variants of: B1
Conditions: with pcbp1_human PCBP1, Q15365

**Q.** How did the “effect of a mutation on the interaction” value turn out when D351H was run?
**A.** with no effect

Variants of: B1
Conditions: with pgfra_human PDGFRA

**Q.** How did the “effect of a mutation on the interaction” value turn out when D351H was run?
**A.** with no effect

Variants of: B1
Conditions: with pgfrb_human PDGFRB

**Q.** How did the “effect of a mutation on the interaction” value turn out when D351H was run?
**A.** with no effect

Variants of: B1
Conditions: with pdk1_human PDK1, Q15118

**Q.** How did the “effect of a mutation on the interaction” value turn out when D351H was run?
**A.** with no effect

Variants of: B1
Conditions: with PIK3C2B

**Q.** D351H was tested. Which “effect of a mutation on the interaction” value did it give?
**A.** with no effect

Variants of: B1
Conditions: with pk3c3_human PIK3C3, Q8NEB9

**Q.** With D351H as the variant, how does the “effect of a mutation on the interaction” value read?
**A.** with no effect

Variants of: B1
Conditions: with pk3ca_human PIK3CA

**Q.** With D351H as the variant, how does the “effect of a mutation on the interaction” value read?
**A.** with no effect

Variants of: B1
Conditions: with pk3cb_human PIK3CB

**Q.** With D351H as the variant, how does the “effect of a mutation on the interaction” value read?
**A.** with no effect

Variants of: B1
Conditions: with pk3cg_human PIK3CG

**Q.** Which “effect of a mutation on the interaction” value does the source give for D351H here?
**A.** with no effect

Variants of: B1
Conditions: with p85a_human PIK3R1, P27986

**Q.** How did the “effect of a mutation on the interaction” value turn out when D351H was run?
**A.** with no effect

Variants of: B1
Conditions: with p85b_human PIK3R2, O00459

**Q.** How did the “effect of a mutation on the interaction” value turn out when D351H was run?
**A.** with no effect

Variants of: B1
Conditions: with dpod1_human POLD1, P28340

**Q.** With D351H as the variant, how does the “effect of a mutation on the interaction” value read?
**A.** with no effect

Variants of: B1
Conditions: with dpoe1_human POLE

**Q.** For D351H, which “effect of a mutation on the interaction” value is on record?
**A.** with no effect

Variants of: B1
Conditions: with lipa1_human PPFIA1, Q13136

**Q.** D351H was tested. Which “effect of a mutation on the interaction” value did it give?
**A.** with no effect

Variants of: B1
Conditions: with 2aaa_human PPP2R1A

**Q.** D351H was tested. Which “effect of a mutation on the interaction” value did it give?
**A.** with no effect

Variants of: B1
Conditions: with prdm1_human PRDM1, O75626

**Q.** With D351H as the variant, how does the “effect of a mutation on the interaction” value read?
**A.** with no effect

Variants of: B1
Conditions: with aapk2_human PRKAA2, P54646

**Q.** Which “effect of a mutation on the interaction” value does the source give for D351H here?
**A.** with no effect

Variants of: B1
Conditions: with prss8_human PRSS8, Q16651

**Q.** With D351H as the variant, how does the “effect of a mutation on the interaction” value read?
**A.** with no effect

Variants of: B1
Conditions: with ptk6_human PTK6, Q13882

**Q.** With D351H as the variant, how does the “effect of a mutation on the interaction” value read?
**A.** with no effect

Variants of: B1
Conditions: with tf65_human RELA

**Q.** Which “effect of a mutation on the interaction” value does the source give for D351H here?
**A.** with no effect
